Molecular target: hepatitis B virus (HBV) truncated core protein Cp149 dimer (hepatitis B virus)
Assay: resistive-pulse sensing

## hepatitis B virus (HBV) truncated core protein Cp149 dimer (domain or fragment)
  stoichiometry N: 90 dimers

— PMC6510601
